Assay results from publication PMC6561789 (Molecular microbiology, 2019).
Where a chain is given by its changes, count along the chain named. In names and notes the source's numbering stands.

B1: HigA antitoxin (Proteus vulgaris, Rts1 plasmid), wild type (natural protein)
chain: MRQFKVSHPGEMIARDLEDMGVSGRRFAHNIGVTPATVSRLLAGKTALTPSLSIRIAAALGSTPEFWLRLQSNYDLRQLENQIDTSGIVLYGESNEQQQNAQEH
B2: HigA R40A variant (Proteus vulgaris, Rts1 plasmid) (natural protein)
chain: B1 chain with R40A

How the values were obtained:
AUC = molecular target: the molecule itself; assay: AUC
SEC = molecular target: the molecule itself; assay: SEC

Protein | stoichiometry N (AUC) | stoichiometry N (SEC)
B1 | 2 | –
B2 | – | 2
